# Columns and labels:
# [1] = test system: BFP transgene in 293T cells; experiment: ssODN-based BFP-to-GFP HR assay; type: cell-based; settings: AAV-DJ transduced 293T cells, Cas9 RNP, 4 d, versus i53-DM
# Excerpt: FIG. 11. 53BP1 inhibition by i53 stimulates ssODN-mediated homologous recombination. FIG. 11A, Schematic of the BFP-to-GFP conversion assay. Cells carrying a stably integrated BFP transgene are transfected with Cas9 ribonucleoproteins (RNPs) programmed with a gRNA against the BFP coding sequence along with an ssODN that converts 3 nucleotides of BFP into those that produce a GFP protein upon successful HR-mediated repair. FIG. 11B-C, 293T cells that were first transduced with AAV-DJ1 vectors coding for i53-DM or i53 with the BFP transgene were nucleofected with Cas9 RNPs and optimal (b) and suboptimal (c) ssODN repair donors that convert BFP to GFP. 4 d after nucleofection, GFP fluorescence was monitored by flow cytometry. […] 3 d post-nucleofection, genomic DNA was isolated and the presence of the Pcil restriction fragment length polymorphism (RFLP) was determined by restriction digest on PCR-amplified genomic DNA. […]
# The BFP-to-GFP assay was performed essentially as described Richardson CD et al, Nat Biotechnol. […] After 4 days, BFP and GFP fluorescence were measured by flow cytometry on a BD Fortessa, and analyzed with FlowJo v10 software. […]
# [2] = target: T1, CFL1 (Homo sapiens, UniProt P23528); experiment: Flag IP-MS of i53/i53-DM baits: prey CFL1; type: binding; settings: 293T Flp-In/T-Rex extracts, LC-MS/MS, one column per replicate IP
# T1 construct: endogenous in cells; host or cells: HEK293 Flp-In/T-REx
# Procedure: Following immunoprecipitation of Flag-tagged i53 and i-53-DM from HEK293 Flp-In/T-REx cells, peptides were identified using LC-MS/MS. Proteins were digested in solution with trypsin (Sigma, T7575-1KT) and dried to completeness. For LC-MS/MS analysis, peptides were reconstituted in 5% formic acid and loaded onto a 12-15 cm fused silica column with pulled tip packed in-house with 3.5 μm Zorbax C18 (Agilent Technologies, Calif., USA).
# i53 and i53-DM precipitates were analyzed using an LTQ (Thermo Scientific) coupled to an Agilent 1100 Series HPLC (Agilent Technologies). Peptides were eluted from the column using a 90 min period cycle with a linear gradient from 0% to 40% ACN in 0.1% formic acid. Tandem MS spectra were acquired in a data-dependent mode for the top 5 (LTQ) most abundant ions using collision-induced dissociation. Acquired spectra were searched against the human Refseq_V53 database using Mascot (Matrix Science).
# 293T Flp-In/T-Rex cell lines were generated that expressed Flag-tagged i53 or i53-DM under the control of a tetracycline-inducible promoter as previously described. Nine IP-MS experiments were analyzed (3 biological replicate IPs each for control i53- and i53-DM expressing cell lines). The interacting proteins were identified by MASCOT to identify high-confidence interactors for i53. […]
# T1 sequence (P23528 whole entry): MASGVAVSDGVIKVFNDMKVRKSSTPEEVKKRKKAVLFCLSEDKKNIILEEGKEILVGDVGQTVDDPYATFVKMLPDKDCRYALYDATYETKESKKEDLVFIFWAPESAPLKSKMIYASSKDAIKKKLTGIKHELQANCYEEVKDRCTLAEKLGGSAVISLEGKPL
substance,measurement,setting,value
i53: UbvG08 with C-terminal di-glycine removed and I44A mutation; genetically encoded inhibitor of 53BP1,"Stimulation of HDR by ssODNs, BFP-to-GFP conversion",[1],1.3-1.4 fold
same,"Total peptides, CFL1",[2],6
